We go through 5 molecules from patent publication US20230340089A1 (CITY OF HOPE, published 2023).

For experiment [1], the target named is T1, Structural Maintenance of Chromosome-1A (SMC1A) (human, UniProt Q14683 1-1233).
T1 construct: whole, on cells; Endogenous antigen; It is on live or fixed cells in flow cytometry, LI-COR cell surface assay, ICC and immunogold EM, and in cell lysates in Western blot and immunoprecipitation; No recombinant SMC1A was used; also called SMC1A antigen; surface SMC1
T1 sequence (looked up): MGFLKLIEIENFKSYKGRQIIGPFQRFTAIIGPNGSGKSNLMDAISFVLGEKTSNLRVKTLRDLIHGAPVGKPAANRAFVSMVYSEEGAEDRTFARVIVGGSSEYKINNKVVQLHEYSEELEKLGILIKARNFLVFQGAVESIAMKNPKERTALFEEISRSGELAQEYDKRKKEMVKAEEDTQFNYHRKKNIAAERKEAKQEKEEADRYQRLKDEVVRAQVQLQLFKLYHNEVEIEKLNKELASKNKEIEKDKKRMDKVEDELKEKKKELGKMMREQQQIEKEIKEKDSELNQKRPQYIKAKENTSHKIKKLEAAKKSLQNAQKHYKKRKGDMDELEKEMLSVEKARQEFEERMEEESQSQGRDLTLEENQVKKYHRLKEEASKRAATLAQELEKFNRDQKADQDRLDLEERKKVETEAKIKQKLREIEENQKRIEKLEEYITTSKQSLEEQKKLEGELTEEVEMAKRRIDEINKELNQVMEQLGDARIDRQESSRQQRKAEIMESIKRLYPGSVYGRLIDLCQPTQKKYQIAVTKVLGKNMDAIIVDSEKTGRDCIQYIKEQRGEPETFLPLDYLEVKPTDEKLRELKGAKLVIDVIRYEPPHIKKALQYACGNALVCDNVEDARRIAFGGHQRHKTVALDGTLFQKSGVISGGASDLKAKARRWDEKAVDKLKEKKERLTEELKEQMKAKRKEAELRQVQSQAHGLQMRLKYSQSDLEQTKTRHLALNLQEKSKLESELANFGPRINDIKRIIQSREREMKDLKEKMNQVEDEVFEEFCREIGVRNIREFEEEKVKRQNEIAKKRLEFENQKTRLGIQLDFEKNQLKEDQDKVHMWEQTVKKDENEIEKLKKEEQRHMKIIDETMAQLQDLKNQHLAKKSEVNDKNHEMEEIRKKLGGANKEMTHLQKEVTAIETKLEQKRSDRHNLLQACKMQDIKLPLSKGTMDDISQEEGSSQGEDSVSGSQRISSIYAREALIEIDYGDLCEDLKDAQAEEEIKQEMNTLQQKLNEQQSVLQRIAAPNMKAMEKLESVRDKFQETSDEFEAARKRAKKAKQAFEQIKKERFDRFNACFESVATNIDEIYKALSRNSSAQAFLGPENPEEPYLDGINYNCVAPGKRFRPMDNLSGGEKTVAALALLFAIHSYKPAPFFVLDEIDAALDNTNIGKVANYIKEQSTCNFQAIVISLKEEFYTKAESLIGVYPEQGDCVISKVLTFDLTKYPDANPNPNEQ
The experiment can be described thus: immunoprecipitation, then Western blot with the Bethyl anti-human SMC1A polyclonal antibody. On the technique in general: A western blot detects proteins with antibodies after separation by electrophoresis.

Experiment [2] has as its target T1, Structural Maintenance of Chromosome-1A …. The experiment can be described thus: LI-COR based cell surface assay on tumor cells.
For experiment [3] the target is unchanged. The experiment can be described thus: Western blot of HCT116, HT29 and MDA-MB-231 lysates, 1 ug/ml. How it is done:
For each Westem blot, the cell lysates used as samples were from HCT116 cells (1), HT29 cells (2) and MDA-MB-231 cells (3). […] The secondary antibody used was an anti-human-HRP (dilution 1:3000) and incubated for 1 hour at room temperature with the overnight incubations.

B1: SMC1A4-chimeric antibody (antibody, V domains shown)
VH: VQLQQSGAELVKPGASVKLSCTASGFNIKDPYMHWVKQRPEQGLEWIGWITPANGNTKYDPKFQAKATITADTYSNTAYLQFSSLTSEDTAVYFCARSGDAYYWAWFAYWGQGTLVTVSA
VL: DVLMTQTPLSLTVSLGDQASISCRSSQSIVHSNGNTYLEWYLQKPGQSPKLLIYKVSNRFSGVSDRFSGSGSGTDFTLKISRVEAEDLGVYYCFQGPLYTFGGGTKLEIKR
notes: Chimeric IgG detected with anti-human secondary antibodies; also called chimeric SMC1A4; SMC1A4 chimeric monoclonal antibody
In the case of B1, in experiment [1], the binding result is “binds”.

B2: SMC1-Beta (antibody, V domains shown)
VH: EVKLQESGPELVKSGASVKIPCKASGYTFTDFNIEWVKQNRGKSLEWIGDINPSNGETIYNKKFKGKATLTVDKSSTTAFMELRSLTSEDTAVYYCARDHYYGYDYDAMDYWGQGTSVTVSS
VL: QIVLTQSPAIMSASPGEKVTMTCSASSSIGYMHWYQQKPGTSPKRWIYDRSKLASGVPARFSGSGSGTSFSLTISSMEAEDAATYYCHQRSRYPYTFGGGTKLEIKR
For the molecule B2, the binding result in experiment [2] was “binds”.

B3: meditope-enabled SMC1A4 (antibody, human IgG1, kappa, V domains shown)
VH: EVQLVESGGGLVQPGGSLRLSCAASGFNIKDPYMHWVRQSPGKGLEWIGWITPANGNTKYADSVKGRATISADTSKNTAYLQMNSLRAEDTAIYFCARSGDAYYWAWFAYWGQGTLVTVSS
VL: DVQMTQSPILLSASVGDRVTITCRSSQSIVHSNGNTYLEWYQQRTNGSPRLLIYKVSNRFSGVPSRFSGSGSGTDFTLTISSLQPEDIADYYCFQGPLYTFGAGTKVEIKR
notes: It was detected with anti-human secondary antibodies; also called SMC1A4-me; SMC1A4-ME
As for B3, the binding result in experiment [3] is listed as “binds”.

B4: SMC1A1 (antibody, V domains shown)
VH: VTLKESGPGILQPSQTLSLTCSFSGFSLSTSGMGVGWIRQPSGKGLEWLAHIWWDDDQYSNTALRSGLTISKDTSKNQVFLKIASVDTSDTATYYCARVTTDAVDYWGQGTSVTVSS
VL: QIVLTQSPAIMSISPGERVTMTCSASSGLTYMYWYQQKPGSSPRLLIYDTSNLASGVPVRFSGSGSGTSYSLTISRMEAEDAATYYCQQWKSFPPTFGGGTKLEIKR
notes: also called SMC1A-ALPHA1
On to B4, for which, in experiment [2], the binding result is given as “binds”.

B5: chimeric SMC1A1 mAb (antibody, V domains shown)
VH: B4 VH
VL: B4 VL
notes: also called SMC1A-ALPHA1
As for B5, the binding result in experiment [1] is recorded as “binds”.
